Reference: publication PMC8495968 (2021)
Ends that are not written are not given here. * marks the point of attachment. FITC = O=C1OC2(c3ccc(O)cc3Oc3cc(O)ccc32)c2ccc(NC(=S)*)cc21; Ahx = NCCCCCC(=O)O

Molecular target: MCL-1 (Homo sapiens, UniProt Q07820)
Assay: fluorescence anisotropy direct titration

Sequence of MCL-1 (Q07820 whole entry): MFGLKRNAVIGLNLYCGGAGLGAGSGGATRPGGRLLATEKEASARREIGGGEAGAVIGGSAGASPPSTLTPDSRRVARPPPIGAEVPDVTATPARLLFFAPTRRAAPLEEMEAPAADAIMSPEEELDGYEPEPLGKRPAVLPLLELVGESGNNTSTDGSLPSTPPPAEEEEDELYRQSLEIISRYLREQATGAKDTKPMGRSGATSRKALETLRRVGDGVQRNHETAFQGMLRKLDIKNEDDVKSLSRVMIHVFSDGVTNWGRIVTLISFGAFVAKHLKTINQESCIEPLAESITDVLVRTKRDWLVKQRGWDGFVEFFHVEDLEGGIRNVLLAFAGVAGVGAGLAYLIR

Kd: 204 nM
Binder: {FITC-Ahx}-TRSPLFIFMRR [FITC-Ahx-BIM75–85 75-85]
